Test results: article PMC12318175
Like-named read-outs stand apart in the source and are kept apart here.

Tests used:
GST-OGG1 [1] = target: T1, GST-OGG1 (mouse, UniProt O08760 1-345); test: EMSA
GST-OGG1 [2] = target: T1, GST-OGG1; test: EMSA; remark: listed apart in the source

T1 sequence (O08760 whole entry): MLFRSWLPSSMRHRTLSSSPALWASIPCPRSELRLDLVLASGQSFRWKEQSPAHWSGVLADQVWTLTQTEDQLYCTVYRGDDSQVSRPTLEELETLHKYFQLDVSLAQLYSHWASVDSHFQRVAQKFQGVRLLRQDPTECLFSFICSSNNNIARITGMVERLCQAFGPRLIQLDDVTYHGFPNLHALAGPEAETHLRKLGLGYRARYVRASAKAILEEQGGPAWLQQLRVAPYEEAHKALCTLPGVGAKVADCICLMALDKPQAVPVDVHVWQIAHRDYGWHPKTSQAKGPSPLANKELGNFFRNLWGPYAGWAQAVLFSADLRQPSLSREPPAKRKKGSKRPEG

B1: Cy5-WT (Foxp3 pro) (dsDNA)
DNA 1: AAGTGTGGGTATGGGAGCCAGACTGTCTGGAACAACCTA
DNA 2: TAGGTTGTTCCAGACAGTCTCGCTCCCATACCCACACTT
binding result (GST-OGG1 [1]): no binding

B2: Cy5-5mC8-oxoG/GC (Foxp3 CNS2) (dsDNA)
DNA 1: GCCGATGAAGCCCAATGCATCCGGCCGCCATGACGTCA
DNA 2: TGACGTCATGGCGGCCGGATGCATTGGGCTTCATCGGC
modifications: 5mC at sense C22; 8-oxoG at sense G23
binding result (GST-OGG1 [2]): binds
